± gives the standard deviation of the averaged measurements.
Assay: total protein half-life in vivo (active degradation + dilution); higher = more stable protein
[1] = wild type E. coli NCM3722, growth: C-lim chemostat, doubling time 12 h
[2] = E. coli NCM3722 delta-clpP, growth: N-lim chemostat, doubling time 6 h
[3] = E. coli NCM3722 delta-hslV, growth: N-lim chemostat, doubling time 6 h
[4] = E. coli NCM3722 delta-lon, growth: N-lim chemostat, doubling time 6 h
[5] = E. coli NCM3722 delta-smpB, growth: N-lim chemostat, doubling time 6 h
[6] = wild type E. coli NCM3722, growth: C-lim chemostat, doubling time 3 h
[7] = wild type E. coli NCM3722, growth: C-lim chemostat, doubling time 6 h
[8] = wild type E. coli NCM3722, growth: N-lim chemostat, doubling time 6 h
[9] = wild type E. coli NCM3722, growth: N-lim chemostat, doubling time 12 h
[10] = wild type E. coli NCM3722, growth: P-lim chemostat, doubling time 6 h
[11] = wild type E. coli NCM3722, growth: P-lim chemostat, doubling time 12 h
[12] = E. coli NCM3722 delta-clpP delta-lon delta-hslV, growth: N-lim chemostat, doubling time 6 h

Sequence	total protein half-life in vivo [1] [h]	total protein half-life in vivo [2] [h]	total protein half-life in vivo [3] [h]	total protein half-life in vivo [4] [h]	total protein half-life in vivo [5] [h]	total protein half-life in vivo [6] [h]	total protein half-life in vivo [7] [h]	total protein half-life in vivo [8] [h]	total protein half-life in vivo [9] [h]	total protein half-life in vivo [10] [h]	total protein half-life in vivo [11] [h]	total protein half-life in vivo [12] [h]
MYSSSRKRCPKTKWALKLLTAAFLAASPAAKSAVNNAYDALIIEARKGNTQPALSWFALKSALSNNQIADWLQIALWAGQDKQVITVYNRYRHQQLPARGYAAVAVAYRNLQQWQNSLTLWQKALSLEPQNKDYQRGQILTLADAGHYDTALVKLKQLNSGAPDKANLLAEAYIYKLAGRHQDELRAMTESLPENASTQQYPTEYVQALRNNQLAAAIDDANLTPDIRADIHAELVRLSFMPTRSESERYAIADRALAQYAALEILWHDNPDRTAQYQRIQVDHLGALLTRDRYKDVISHYQRLKKTGQIIPPWGQYWVASAYLKDHQPKKAQSIMTELFYHKETIAPDLSDEELADLFYSHLESENYPGALTVTQHTINTSPPFLRLMGTPTSIPNDTWLQGHSFLSTVAKYSNDLPQAEMTARELAYNAPGNQGLRIDYASVLQARGWPRAAENELKKAEVIEPRNINLEVEQAWTALTLQEWQQAAVLTHDVVEREPQDPGVVRLKRAVDVHNLAELRIAGSTGIDAEGPDSGKHDVDLTTIVYSPPLKDNWRGFAGFGYADGQFSEGKGIVRDWLAGVEWRSRNIWLEAEYAERVFNHEHKPGARLSGWYDFNDNWRIGSQLERLSHRVPLRAMKNGVTGNSAQAYVRWYQNERRKYGVSWAFTDFSDSNQRHEVSLEGQERIWSSPYLIVDFLPSLYYEQNTEHDTPYYNPIKTFDIVPAFEASHLLWRSYENSWEQIFSAGVGASWQKHYGTDVVTQLGYGQRISWNDVIDAGATLRWEKRPYDGDREHNLYVEFDMTFRF	> 16											
MIDLYFAPTPNGHKITLFLEEAELDYRLIKVDLGKGGQFRPEFLRISPNNKIPAIVDHSPADGGEPLSLFESGAILLYLAEKTGLFLSHETRERAATLQWLFWQVGGLGPMLGQNHHFNHAAPQTIPYAIERYQVETQRLYHVLNKRLENSPWLGGENYSIADIACWPWVNAWTRQRIDLAMYPAVKNWHERIRSRPATGQALLKAQLGDERSDS	9.73 ± 0.75	4.37 ± 1.4	4.61 ± 1.6	4.28 ± 0.48	2.94 ± 1.1	3.27 ± 0.89	4.84 ± 0.4	4.02 ± 1.1	6.01 ± 0.55	5.6483 ± 0.0048	11.48 ± 0.07	
MKKKILAFGLISALFCSTPAMADMNRTTKGALLGAGVGLLTGNGVNGVLKGAAVGAGVGAVTEKGRDGKNARKGAKVGAAVGAVTGVLTGNGLEGAIKGAVIGGTGGAILGKMK [Q7DFV3]			1.46 ± 0.28		1.39	1.42 ± 0.11	1.67	1.78 ± 0.36	1.87	2.752 ± 0.007	5.14 ± 0.75	
MHLSTHPTSYPTRYQEIAAKLEQELRQHYRCGDYLPAEQQLAARFEVNRHTLRRAIDQLVEKGWVQRRQGVGVLVLMRPFDYPLNAQARFSQNLLDQGSHPTSEKLLSVLRPASGHVADALGITEGENVIHLRTLRRVNGVALCLIDHYFADLTLWPTLQRFDSGSLHDFLREQTGIALRRSQTRISARRAQAKECQRLEIPNMSPLLCVRTLNHRDGESSPAEYSVSLTRADMIEFTMEH							6.73			0.458 ± 0.023	1.54 ± 0.86	
MEFSVKSGSPEKQRSACIVVGVFEPRRLSPIAEQLDKISDGYISALLRRGELEGKPGQTLLLHHVPNVLSERILLIGCGKERELDERQYKQVIQKTINTLNDTGSMEAVCFLTELHVKGRNNYWKVRQAVETAKETLYSFDQLKTNKSEPRRPLRKMVFNVPTRRELTSGERAIQHGLAIAAGIKAAKDLGNMPPNICNAAYLASQARQLADSYSKNVITRVIGEQQMKELGMHSYLAVGQGSQNESLMSVIEYKGNASEDARPIVLVGKGLTFDSGGISIKPSEGMDEMKYDMCGAAAVYGVMRMVAELQLPINVIGVLAGCENMPGGRAYRPGDVLTTMSGQTVEVLNTDAEGRLVLCDVLTYVERFEPEAVIDVATLTGACVIALGHHITGLMANHNPLAHELIAASEQSGDRAWRLPLGDEYQEQLESNFADMANIGGRPGGAITAGCFLSRFTRKYNWAHLDIAGTAWRSGKAKGATGRPVALLAQFLLNRAGFNGEE	11.7 ± 1	6.34 ± 0.31	6.11 ± 0.078	7.01 ± 0.64	5.81 ± 0.16	3.38 ± 0.097	6.45 ± 0.3	6.215 ± 0.053	12.7 ± 1.1	6.33 ± 0.09	12.7 ± 0.79	6.37 ± 0.15
MVDKRESYTKEDLLASGRGELFGAKGPQLPAPNMLMMDRVVKMTETGGNFDKGYVEAELDINPDLWFFGCHFIGDPVMPGCLGLDAMWQLVGFYLGWLGGEGKGRALGVGEVKFTGQVLPTAKKVTYRIHFKRIVNRRLIMGLADGEVLVDGRLIYTASDLKVGLFQDTSAF [P0A6Q3]	11.5 ± 1.6	4.99 ± 0.2	5.5 ± 0.67	5.48 ± 0.64	5.18 ± 0.13	3.03 ± 0.035	5.626 ± 0.038	5.0372 ± 0.0034	10.1 ± 0.12	5.56 ± 0.57	12.2 ± 0.94	4.896 ± 0.032
MSELNDLLTTRELQRWRLILGEAAETTLCGLDDNARQIDHALEWLYGRDPERLQRGERSGGLGGSNLTTPEWINSIHTLFPQQVIERLESDAVLRYGIEDVVTNLDVLERMQPSESLLRAVLHTKHLMNPEVLAAARRIVCQVVEEIMARLAKEVRQAFSGVRDRRRRSFIPLARNFDFKSTLRANLQHWHPQHGKLYIESPRFNSRIKRQSEQWQLVLLVDQSGSMVDSVIHSAVMAACLWQLPGIRTHLVAFDTSVVDLTADVADPVELLMKVQLGGGTNIASAVEYGRQLIEQPAKSVIILVSDFYEGGSSSLLTHQVKKCVQSGIKVLGLAALDSTATPCYDRDTAQALVNVGAQIAAMTPGELASWLAENLQS	12.9								8.61	6.39		
MTQYSSLLRGLAAGSAFLFLFAPTAFAAEQTVEAPSVDARAWILMDYASGKVLAEGNADEKLDPASLTKIMTSYVVGQALKADKIKLTDMVTVGKDAWATGNPALRGSSVMFLKPGDQVSVADLNKGVIIQSGNDACIALADYVAGSQESFIGLMNGYAKKLGLTNTTFQTVHGLDAPGQFSTARDMALLGKALIHDVPEEYAIHKEKEFTFNKIRQPNRNRLLWSSNLNVDGMKTGTTAGAGYNLVASATQGDMRLISVVLGAKTDRIRFNESEKLLTWGFRFFETVTPIKPDATFVTQRVWFGDKSEVNLGAGEAGSVTIPRGQLKNLKASYTLTEPQLTAPLKKGQVVGTIDFQLNGKSIEQRPLIVMENVEEGGFFGRVWDFVMMKFHQWFGSWFS	12.4 ± 0.45	6.56 ± 0.37	6.22 ± 0.69	6.18 ± 0.099	6.46 ± 0.26	3.19 ± 0.077	6.19 ± 1.3	5.989 ± 0.057	14.9 ± 1.2	5.962 ± 0.051	13.2 ± 0.29	6.35 ± 0.48
